Measurements as given in patent publication US20020081638.
“And” between values parts separate entries of the source, which are not always exact repeats. Equal entries are not always repeated.

Legend:
[1] = target: free histones (mixture of H1, H3, H2B, H2A and H4; Boehringer Mannheim)
[2] = target: N-terminus of human CENP-A peptide
[3] = target: wild-type N-terminus of human histone H3 peptide (aa 1-20)
[4] = target: N-terminus of rat macro-H2A peptide
[5] = target: mutant H3 (K9L) N-terminal peptide

B1: (myc)3-SUV39H1 (aa 3-412), triple myc-tagged full-length human SUV39H1 (protein)
chain: ENLKGCSVCCKSSWNQLQDLCRLAKLSCPALGISKRNLYDFEVEYLCDYKKIREQEYYLVKWRGYPDSESTWEPRQNLKCVRILKQFHKDLERELLRRHHRSKTPRHLDPSLANYLVQKAKQRRALRRWEQELNAKRSHLGRITVENEVDLDGPPRAFVYINEYRVGEGITLNQVAVGCECQDCLWAPTGGCCPGASLHKFAYNDQGQVRLRAGLPIYECNSRCRCGYDCPNRVVQKGIRYDLCIFRTDDGRGWGVRTLEKIRKNSFVMEYVGEIITSEEAERRGQIYDRQGATYLFDLDYVEDVYTVDAAYYGNISHFVNHSCDPNLQVYNVFIDNLDERLPRIAFFATRTIRAGEELTFDYNMQVDPVDMESTRMDSNFGLAGLPGSPKKRVRIECKCGTESCRKYLF
in vitro HMTase assay, fluorography of 14C-methyl label (histone H3): indicating selective transfer of the methyl-label to H3

B2: (myc)3-Nchromo (aa 3-118), C-terminally truncated human SUV39H1 (protein)
chain: ENLKGCSVCCKSSWNQLQDLCRLAKLSCPALGISKRNLYDFEVEYLCDYKKIREQEYYLVKWRGYPDSESTWEPRQNLKCVRILKQFHKDLERELLRRHHRSKTPRHLDPSLANYL
in vitro HMTase assay, fluorography of 14C-methyl label [1]: no signals were detected with extracts from a HeLa cell line that expresses only the N-terminal third of SUV39H1 (aa 3-118)

B3: GST-Suv39h1(82-412), murine (protein)
chain: CIRVLKQFHKDLERELVRRHRRSKPPRHLDPNLANYLVQKAKQRRALQRWEQELNAKRSHLGRITVENEVDLDGPPRSFVYINEYRVGEGITLNQVAVGCECQDCLLAPTGGCCPGASLHKFAYNDQGQVRLKAGQPIYECNSRCCCGYDCPNRVVQKGIRYDLCIFRTNDGRGWGVRTLEKIRKNSFVMEYVGEIITSEEAERRGQIYDRQGATYLFDLDYVEDVYTVDAAYYGNISHFVNHSCDPNLQVYNVFIDNLDERLPRIAFFATRTIWAGEELTFDYNMQVDPVDMESTRMDSNFGLAGLPGSPKKRVRIECKCGTTACRKYLF
in vitro methylation of individual histones, fluorography (histone H1): A weak signal is present if H1 was used as the sole substrate | in vitro methylation of peptides, SDS-PAGE and fluorography [2]: no signals were detected with the CENP-A or macroH2A peptides, or with insulin | in vitro methylation of individual histones, fluorography (histone H2B): no signals are detected with H2A, H2B or H4 | 3H-incorporation of individual amino acids by microsequencing of the in vitro methylated peptide [3]: The results confirmed selective transfer of methyl-label to lysine 9 | in vitro methylation of peptides, SDS-PAGE and fluorography [3]: These in vitro assays revealed selective methylation of the wild-type H3 peptide | in vitro HMTase assay, fluorography of 14C-methyl label [1]: A purified GST-product comprising aa 82-412 maintained HMTase activity (although at a reduced level as compared to transfected SUV39H1) | in vitro methylation of peptides, SDS-PAGE and fluorography [4]: no signals were detected with the CENP-A or macroH2A peptides, or with insulin | in vitro methylation of individual histones, fluorography (histone H3): H3 is specifically methylated by GST-Suv39h1(82-412) | in vitro methylation of peptides, SDS-PAGE and fluorography [5]: the mutated H3 (K9L) peptide was not a substrate | in vitro methylation of individual histones, fluorography (histone H2A): no signals are detected with H2A, H2B or H4 | in vitro methylation of individual histones, fluorography (histone H4): no signals are detected with H2A, H2B or H4 | in vitro methylation of peptides, SDS-PAGE and fluorography (insulin (Sigma)): no signals were detected with the CENP-A or macroH2A peptides, or with insulin

B4: GST-Suv39h1(7-221), murine (protein)
chain: GCSVCCKSSWNQLQDLCRLAKLSCPALGVSKKNLYDFEVEYLCDYKKIREQEYYLVKWRGYPDSENTWEPRQNLKCIRVLKQFHKDLERELVRRHRRSKPPRHLDPNLANYLVQKAKQRRALQRWEQELNAKRSHLGRITVENEVDLDGPPRSFVYINEYRVGEGITLNQVAVGCECQDCLLAPTGGCCPGASLHKFAYNDQGQVRLKAGQPIYE
in vitro HMTase assay, fluorography of 14C-methyl label [1]: a purified GST-product comprising aa 7-221 proved negative, even at higher protein concentrations

B5: GST-CLR4(127-490), S. pombe (protein)
chain: KQSTALTTNDTSIILDDSLHTNSKKLGKTRNEVKEESQKRELVSNSIKEATSPKTSSILTKPRNPSKLDSYTHLSFYEKRELFRKKLREIEGPEVTLVNEVDDEPCPSLDFQFISQYRLTQGVIPPDPNFQSGCNCSSLGGCDLNNPSRCECLDDLDEPTHFAYDAQGRVRADTGAVIYECNSFCSCSMECPNRVVQRGRTLPLEIFKTKEKGWGVRSLRFAPAGTFITCYLGEVITSAEAAKRDKNYDDDGITYLFDLDMFDDASEYTVDAQNYGDVSRFFNHSCSPNIAIYSAVRNHGFRTIYDLAFFAIKDIQPLEELTFDYAGAKDFSPVQSQKSQQNRISKLRRQCKCGSANCRGWLFG
in vitro HMTase assay with free histones, activity against recombinant SUV39H1 product [1]: 3 fold and 5 fold
